Assay results: US20120114590A1 (priority 2005, published 2012)

Assays:
mouse B cells = experiment: 3H-thymidine incorporation by mouse B cells; type: cell-based; details: 72 hrs culture
Experimental: Mouse B cells were isolated from 2 Balb/C spleens (7 months old) by depleting CD43+ cells using MACS magnetic beads. Purified B cells were cultured in vitro with LPS, anti-IgM or anti-CD40 monoclonal antibodies. Mouse IL-28 or mouse IFNα was added to the cultures and ^3H-thymidine was added at 48 hrs. and ^3H-thymidine incorporation was measured after 72 hrs. culture.

AML-12 cells = experiment: ISG induction in the mouse liver cell line AML-12 (real-time PCR); type: cell-based; details: AML-12, 20 ng/ml, 48 hour time point; mRNA relative to HPRT gene expression
Experimental: AML-12 cells were plated in 6-well plates in complete DMEM media at a concentration of 2×10^6 cells/well. […] As a control, cells were either stimulated with mouse IFNα (positive control) or unstimulated (negative). […] RNA was isolated from cell pellets using RNAEasy-kit® (Qiagen, Valencia, Calif.). RNA was treated with DNase (Millipore, Billerica, Mass.) to clean RNA of any contaminating DNA. cDNA was generated using Perkin-Elmer RT mix. ISG gene induction was evaluated by real-time PCR using primers and probes specific for mouse OAS, Pkr and Mx1. To obtain quantitative data, HPRT real-time PCR was duplexed with ISG PCR. A standard curve was obtained using known amounts of RNA from IFN-stimulated mouse PBLs. All data are shown as expression relative to internal HPRT expression.

[1] = tested on: ISRE signaling in HepG2 cells; details: 100 ng/ml ligand, 4-hour incubation; RLU over medium alone
adenoviral vector AdGFP = experiment: Adenoviral vector (AdGFP) liver pathology model in C57Bl/6 mice; details: AdGFP-infected C57Bl/6 mice, 50 μg i.p., 7 doses
[2] = tested on: 293 HEK cells overexpressing zcytor19; experiment: Inhibition of ligand-induced ISRE-luciferase signaling by soluble receptors; type: cell-based, human; details: 10 ng/ml ligand, 10 micrograms/ml soluble receptor, 4-hour; relative to PBS alone

B1: Zcyto24: mouse IL-28A (zcyto24), SEQ ID NO:8 (protein, listed as Mus musculus)
chain: MKPETAGGHMLLLLLPLLLAAVLTRTQADPVPRATRLPVEAKDCHIAQFKSLSPKELQAFKKAKDAIEKRLLEKDLRCSSHLFPRAWDLKQLQVQERPKALQAEVALTLKVWENMTDSALATILGQPLHTLSHIHSQLQTCTQLQATAEPRSPSRRLSRWLHRLQEAQSKETPGCLEASVTSNLFRLLTRDLKCVANGDQCV
Mouse B cells
  3H thymidine incorporation by mouse B cells stimulated with anti-CD40 MAb: increased
Mouse B cells; IFNα at 10 ng/ml, mouse IL-28 any concentration tested including 1000 ng/ml
  3H-thymidine incorporation by mouse B cells stimulated with LPS or anti-IgM: did not inhibit
AML-12 cells
  Mx1: 0.08
  OAS: 0.04
  PkR: 0.02
[1]
  Fold Induction of Cytokine-dependent ISRE Signaling in HepG2 Cells: 4.7 fold
Adenoviral vector AdGFP
  liver histology: liver and inflammation scores versus PBS-treated group: lower liver and inflammation scores
Adenoviral vector AdGFP; n=8
  average serum AST: 193 U/L
  relative liver fluorescence: 34.5 arbitrary units
  serum ALT: 216 U/L
[2]
  Percent Inhibition of Ligand-induced ISRE Signaling by HuCRF2-4-Fc: 82%
  Percent Inhibition of Ligand-induced ISRE Signaling by Huzcytor19-Fc: 90%
  Percent Inhibition of Ligand-induced ISRE Signaling by Huzcytor19-Fc/huCRF2-4-Fc: 47%
  Percent Inhibition of Ligand-induced ISRE Signaling by Muzcytor19-Ig: 89%
